For test [1], the target named is HIV-1 capsid protein C-terminal domain, CA-CTD (Met144-Leu231) (HIV-1). Description: NMR titration.
Test [2] has as its target HIV-1 capsid protein CA (Human immunodeficiency virus 1) (UniProt O93182). Conditions: cited from earlier work.

pKd: −log10 of the molar value.

Chain of HIV-1 capsid protein CA (O93182 133-363): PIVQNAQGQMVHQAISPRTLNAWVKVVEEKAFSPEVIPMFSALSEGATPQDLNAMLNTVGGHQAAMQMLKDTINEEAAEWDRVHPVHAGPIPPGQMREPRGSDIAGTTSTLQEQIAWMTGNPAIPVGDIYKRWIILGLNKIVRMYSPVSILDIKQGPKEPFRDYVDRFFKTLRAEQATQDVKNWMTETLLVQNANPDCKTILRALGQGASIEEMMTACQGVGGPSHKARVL

With “HIV-1 capsid protein C-terminal domain, CA-CTD (Met144-Leu231) (domain or fragment)”, in test [1], the pKd (in general, −log10 of the Kd, conventionally taken in molar units) is 5.01. On to “HIV-1 capsid protein CA (from UniProt O93182)”, for which the pKd in test [2] was 4.74.

These data come from paper PMC2782912.
